The DeepSol protein solubility set

Assay: soluble on expression in E. coli; label from the status in PepcDB or PDB records

Sequence	soluble on expression in E. coli
GAMAEYEIDEITFHKRLGILLTSWKNEEDGKTLFQDCDSILVTVGAHDDTNPYQKSTALHTWLLGYEFPSTLILLEKHRITILTSVNKANMLTKLAETKGAAADVNILKRTKDAEENKKLFEKIIEYIRATNKKVGVFPKDKTQGKFINEWDSIFEPVKSEFNLVDASLGLAKCLAIKDEQELANIKGASRVSVAVMSKYFVDELSTYIDQGKKITHSKFSDQMESLIDNEAFFQTKSLKLGDIDLDQLEWCYTPIIQSGGSYDLKPSAITDDRNLHGDVVLCSLGFRYKSYCSNVGRTYLFDPDSEQQKNYSFLVALQKKLFEYCRDGAVIGDIYTKILGLIRAKRPDLEPNFVRNLGAGIGIEFRESSLLVNAKNPRVLQAGMTLNLSIGFGNLINPHPKNSQSKEYALLLIDTIQITRSDPIVFTDSPKAQGDISYFFGED	soluble
MSLDKPRLQFSIREQVQQLLGGLAGLKNYQVPSKETIADNAYLKQMGVALDVLTKEVEKLKSDDGVSAEAMGDYLYRQVQWVNNIVPTQMDLNRLFATMNTAGIQLEQADILKAKLFKHIHTDKAQYDAMWVACEHLENYFERNVRKVFPNADWYHIEPEHLASFDAERFAAKDETSEALSGLSIAELASQVKASSIPDNTEQEKFETYDLDVETVYCRPIIKFPLLLIHAYRVYLALNDHNDIEPRLHSDRLLEIFDPLINGDEQSVKLFIETLWQVRYQFDRWVVKWVERDDATDAQLGLTYQSRSKSNDTYYINRTQKELTDIVLLQSVRNFTGERSAQYWLTPFLSGLIRSSIKQDSVALELLENIDNKMSLSVDTQKEASFALAEGIEPNCQSWQSQSTYFAKSLGTSFEHYWFQKLEYLIWKKMKASESSLPSEELNKFKKYRITSKNSVEHVHPQNDEYNSRLDCETLNSFGNLVLLSPGENSSYSNQDVDKKRIDFERKSHFDALKLREIFGVKGQGLWGKQQIDNHLEDMMAVFAQHYKEGHHHHHH	soluble
SLQWECWPSLPCWRCFAASGRITLSIKRFTQNSRRHDMKITKINAIPLSYRLPEGKTVTMGVGSTIKRDAIIIRVETSEGITGYGEAHPGRSPGAITSLIHNTIAPMLIGMKATDCVGAWQRVHRMQLSSHGLGAGAALAISGIDMALWDIRGKAANMPLYELLGGSKRRIPAYAGGIALGYQPKESLAEEAQEYIARGYKALKLRIGDAARVDIERVRHVRKVLGDEVDILTDANTAYTMADARRVLPVLAEIQAGWLEEPFACNDFASYREVAKITPLVPIAAGENHYTRFEFGQMLDAGAVQVWQPDLSKCGGITEGIRIAAMASAYRIPINAHSSATGLNHAATIHFLAATENAGYFEACVSKFNPFRDMFGTSFEIGADGCVEPPDAPGLGIEVDESIFEKYPAVDGPGYVVKF	not soluble
MGSDKIHHHHHHMPNIIIIERDINYLKIFIKCMKESGFEVVCMNNTKLVSQVAQKQLPDLIICSLEIAKQNNCNFWNNLCQNFVTATIPLIFLINEASEIYQCPEFAADGYITKFCTTEELNKAIKAQLAKQAARKHGYAIQSQQVLNSPSIGNDQPNVQSILPSIPRLNLVFEFIAANYDKPISLCDVAEALGYSATYLTTVVTQTTGKSLQKWIIECRITAAQILLLQTDQSVNQIALKVGYENLAHFYRQFRDYHGTSPQVWREVEKSHNSHQLNKDKASLNSNNFGDFQ	not soluble
MGSSHHHHHHSSGLVPRGSHMQAATVVINRRALRHNLQRLRELAPASKMVAVVKANAYGHGLLETARTLPDADAFGVARLEEALRLRAGGITKPVLLLEGFFDARDLPTISAQHFHTAVHNEEQLAALEEASLDEPVTVWMKLDTGMHRLGVRPEQAEAFYHRLTQCKNVRQPVNIVSHFARADEPKCGATEKQLAIFNTFCEGKPGQRSIAASGGILLWPQSHFDWVRPGIILYGVSPLKDRSTGADFGCQPVMSLTSSLIAVREHKAGEPVGYGGTWVSERDTRLGVVAMGYGDGYPRAAPSGTPVLVNGREVPIVGRVAMDMICVDLGPQAQDKAGDPVILWGEGLPVERIAEMTKVSAYELITRLTSRVAMKYVD	soluble
SNAMFKEAINNYLHTHGYESIDLKAVLFDMDGVLFDSMPNHAESWHKIMKRFGFGLSREEAYMHEGRTGASTINIVSRRERGHDATEEEIKAIYQAKTEEFNKCPKAERMPGALEVLTKIKSEGLTPMVVTGSGQTSLLDRLNHNFPGIFQANLMVTAFDVKYGKPNPEPYLMALKKGGFKPNEALVIENAPLGVQAGVAAGIFTIAVNTGPLHDNVLLNEGANLLFHSMPDFNKNWETLQSALKQD	soluble
MGHHHHHHSHMSVPRGPIAQWADGAISPNGHRPQLRAASGEDSTEEALAAAAAPWEGGPVPGVDTSPFAKSLGHSRGEADLFDSGDIFSTGTGSQSVERTKPKAKIAENPANPPVGGKAKSPMFPALGEASSDDDLFQSAKPKPAKKTNPFPLLEDEDDLFTDQKVKKNETKSSSQQDVILTTQDIFEDDIFATEAIKPSQKTREKEKTLESNLFDDNIDIFADLTVKPKEKSKKKVEAKSIFDDDMDDIFSTGIQAKTTKPKSRSAQAAPEPRFEHKVSNIFDDPLNAFGGQ	not soluble
YLASDGKTIILVGKNNLQNDELTFKMSKKGELWFHAKDIPGSHVLIKDNLNPSDEIKTDAAELAAYFSKARLSNLVQVDMIEAKKLNK	not soluble
MAERELYIGVMSGTSLDGVDTALVALQDDNIELLAHHDYPIPADLKQRLLNVCIGQPTTLIAMGELEHDLGHLFSDAVLALLQHSGYRAEHIRAIGCHGQTVFHQPTGTKPFTMQIGDANIIATRTGITTVADFRRKDVALGGQGAPLVPAFHRTIFHAEQSTVVVLNIGGIANISVLKPNGEVVGYDTGPGNMLMDSWCQKERNQPYDKDALWAKQGSVNAALLSHLKQDHYFALPAPKSTGRELFNLPWLETQLATFSVDATDVQRTLCEFTAQTIVEQVAPFAEGPQPQLLVCGGGAQNPLLMERLQALLPSWQVAPTTQMGVDGDNMEAMAFAWLAQRRIHGLPSNLPAVTGASRLASLGVIYYPD	not soluble
MSTRLCEPSLRDDGAQRGTPASHGKWCDTGAFKLDETPSPVVANVSSTSDASFQFNRTPSPGKHQNHAADRSMWSLDDFVIIRKLDEGRFGKVYLAREKQSKCAVVLKCISKDMIRFHSLAHQLQREVELQEYAGRYHKNVLRLFAYFWDDVRIVLVLEYADSGTLQDLLDCYREKEQRSSLPDDKVRTILLQLLSALAFLHERDIIHRDVKPDNILFHGEKLLLADFSWAVRVNNSDPRYCRRHTVCGTLDYLAPEQVLKRGCTTKADLWAVGVVAYRMLCGFLPFEMLDARDVCSCIASGAIRYPSQLSPTARHFLQGLLRVDEALRFSCQEALNHPFMRGDCNCRISNRYIESKHRARAEEPVLQHQGSFDTTKNGTRWIQQKKESWCCSRAPTLNVPEPVHHTGTNCVANHSHNHKDMDKSTTLSCPSASDIVRVRATTERVRCPVDDYSGTSASLITISPLRSTECMQSLSNVSTPSIVSQTHSEWLHSASPISHTPVVAAAATSKCSRDDVGTSSYGVSYSGIRLHNSASDGSGTTTGQHHAQLGTSTHSSFAFAPPTSARYRRDISGYHRINGRGSSPSDHEEYEVASCALRLCFDDEDDADNNCSGALHAAASNRPKTLKSGVMMNGTAPPSHHKGSSYDVR	not soluble
MGSDKIHHHHHHMIEVSRFWRDPALPFVEARQVGDGRKVCYAAHSHESFSIGVITGGRSTYINSDQCVEVGAGTTVLMNPGVVHTCNPVAGEPWSYLMLFVDQPWLQAVGFTLPTQTWSRSPVLYRRLLQAFADLFDARLPDREARLAALFHELPGMLGGNASEGGEGNPRLDAAAAFIRAHRSDPLSLEDICGACGLSRSYLIRAFRQRFGLTPHGYLLDQRVQLARAQLRQGRSIAEVAQEAGFADQAHLQRAFKQHLAATPGHYRNAVASLGAPAGAVQALKDQVNRAGDQ	not soluble
MLSFRNWWAREDSNPRPPGYEPGALPTELRAHTAIRLYSNKTPLSRSVISMKKDPIKEMLVKYPRILVIKAALKILKDGNKIDRERIEKTIVKIMTKKEG	not soluble
MSAYKQANRLIHEKSPYLLQHAYNPVDWYPWCDEAFEKAKRENKPIFLSIGYSTCHWCHVMESESFEDEEVAEILNKNFVSIKVDREERPDIDSIYMTACQALTGHGGWPLTIIMTPDKKPFFAGTYFPKKDRMGMPGLISILKSVHNTWVNEKDSLAKYSSKVVSVISESIDDDYYYSVDEITEDIFEDAFSQFKYDFDNIYGGFGNAPKFPMPHNLYFLLRYWHKAKEEYALVMVEKTLDSMYSGGIYDHIGFGFCRYSTDEKWLVPHFEKMLYDNALLAIAYLETYQATKNKKYADIAKEIFTYVLRDMTSPEGGFYSAEDADSEGEEGKFYIWSPTEIKEVLGESDGEKFCKYYNITEEGNFEGLNIPNLINSTIPDEDKEFVELCRKKLFDHREKRVHPHKDDKILTAWNGLMIAALAIGGRVLGIEKYTLAAEKASEFIFSKLVRPDGRLLARYRDGEAAFLAYLDDYAFLIWALIELYETTYKPMYLKKAMELTNDMIKYFWDNKKGGLFIYGSDSEQLITRPKEIYDGAIPSGNSVAALNFLRLSRLTGQQELEEKAHQMFALFGSKIDSMPQGYAFFLTAMLFSKSKSNEVVLVGSNEKDTQNMLSILSEDFRPFTTSILYSEEHKDLKELIPFIDNYTTIENKPTAYVCENFVCHEPITDGALLREKLNR	soluble
MTETKEERVHQVFEKIYKRYDVMNSVISFQRHKAWRKDTMKRMNVQEGQSALDVCCGTADWAIALGKAVGPTGHVEGLDFSENMLSIGKKKIADERLDHVFLRHGNAMELPYADDTFDFVTIGFGLRNVPDYMQVLREMARVTKPGGKVVCLETSQPTIPVFKQLYFFYFRHVMPLFGKMFAKSYDEYSWLQESTLSFPGRDRLAQMFKEVGLTDVQVKPYSGGAAAMHLGVKESYDEESRNVTCLEHHHHHH	not soluble
MGHHHHHHGGHMSLTKKLHIKTWGCQMNEYDSSKMADLLDATHGYQLTDVAEEADVLLLNTCSIREKAQEKVFHQLGRWKLLKEKNPDLIIGVGGCVASQEGEHIRQRAHYVDIIFGPQTLHRLPEMINSVRGDRSPVVDISFPEIEKFDRLPEPRAEGPTAFVSIMEGCNKYCTYCVVPYTRGEEVSRPSDDILFEIAQLAAQGVREVNLLGQNVNAWRGENYDGTTGSFADLLRLVAAIDGIDRIRFTTSHPIEFTDDIIEVYRDTPELVSFLHLPVQSGSDRILNLMGRTHTALEYKAIIRKLRAARPDIQISSDFIVGFPGETTEDFEKTMKLIADVNFDMSYSFIFSARPGTPAADMVDDVPEEEKKQRLYILQERINQQAMAWSRRMLGTTQRILVEGTSRKSIMELSGRTENNRVVNFEGTPDMIGKFVDVEITDVYPNSLRGKVVRTEDEMGLRVAETPESVIARTRKENDLGVGYYQPEGGS	soluble
MKTNVIIDGDACPVVNSVIELTKGTGIFVTILRSFSHFSQQIQPEHVKIVYVDDGPDAVDYKIVELASNNDIVITQDYGLASLLIDKVHTVMHHKGNIYHSNNIQSLLDQRYLNAQIRRRGGRHKGPPPFTTEDRLKFEHAFRKIINQILEHHHHHH	soluble
MGSDKIHHHHHHMKNRAGEYRTNLTGELQYRSFLPYPLPPSPPIELDEETIKLLAKANRSIGILEGMSRQIPDIDLFVSMYVRKEALLSSQIEGTQVTLDDILDPNIEENTNQNVADVINYIKASHYGSARLAELPLCNRLLKEIHEILMQDVRGGEKSPGEFRSSQNWIGPAGSTLRDARYIPPHPEDMLEAMSDLEKFINSEDELDPLIKIALIHYQFETIHPFLDGNGRIGRLLIALYLINQNLLSHETLYISYFLKRNRIEYYDRLTEVRSKGNFEQWLKFFLLAAYESAQDAIDTIERILKLHYKNVEVVKNTGKASKTVMKVFNYLESSPIIDIKKTSLALELSFNTVSNAVNKLVELGILKQTENVRRSRVFAYEEYLEILRKDT	not soluble
